B1: Protein ORD (Drosophila melanogaster (Fruit fly)), Q24434 (parent)
chain: MYGETTLNKNHVIKFIKLKINNCLGCDEVEINFSKADNVHIIIYSLVTDMAKDLPAVTPVAQAILLLCSLTYPDSDSLETIPQLKIGKGSVSMSFKVYPVNKEEETEPESESDLDEGPSTSKQALERMVQRAERKAKEASTRNVHSKGIYVNVERRFDMYFALDTVSYYINGGKRQSCPLPEFHAKFFVRPQHSINLLRQLHEKCSGNWLKVIQSDGDGDAFKKFKDPDSPFETFVKLFESNPIKPNDMMGKLAKTCLHVNEAVRLTEREFILEVFNQVRHIFEYITAQEYTVWFLVPCLGDKDQLRSKTLEDFDLTKVRTSIRRAGDTSNIWWDHTDHNIKDILLVAFQLDLATHVNQSVLVISHLETLAEFSTMQYVTAFFMNDFYAKKNTEPKWICHRYLERIIDVALFLGVIVIIEYPSAFTLLQEGRHLIKCFQKENADSSRTSQWEIFEDVVKENESDLEFLKEAVGKVQQNV
partner: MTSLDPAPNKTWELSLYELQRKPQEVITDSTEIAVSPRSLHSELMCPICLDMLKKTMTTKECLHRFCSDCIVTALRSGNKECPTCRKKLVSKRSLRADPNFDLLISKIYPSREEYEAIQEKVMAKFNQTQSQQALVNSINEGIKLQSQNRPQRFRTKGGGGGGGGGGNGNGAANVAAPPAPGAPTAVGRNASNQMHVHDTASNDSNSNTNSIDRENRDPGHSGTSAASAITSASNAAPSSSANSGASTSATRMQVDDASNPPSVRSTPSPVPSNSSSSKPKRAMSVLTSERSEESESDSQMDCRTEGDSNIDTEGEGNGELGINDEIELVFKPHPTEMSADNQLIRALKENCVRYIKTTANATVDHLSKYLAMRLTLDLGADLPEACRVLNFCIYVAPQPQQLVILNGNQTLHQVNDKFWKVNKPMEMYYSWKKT

The values below come from IntAct's records for PubMed 14669021.

Variants of B1 are the subject of the assay. The note with it: with ring1_drome Sce.
On to V417D, for which the “effect of a mutation on the interaction” value was “decreasing interaction”.
